Data taken from patent publication US9790262B2, “Compositions comprising glucagon analogs and methods of making and using the same” (LONGEVITY BIOTECH, INC., priority 2011, dated 2017).
Non-standard residues stand in square brackets, D forms with d. No end group written: not given here. APC = 3-aminopyrrolidine-4-carboxylic acid (cyclic beta amino acid); ACPC = 2-aminocyclopentanecarboxylic acid (cyclic beta amino acid); Aib = CC(C)(N)C(=O)O

T1: GIP receptor (UniProt P48546 22-466, limits assumed)
T1 sequence (looked up): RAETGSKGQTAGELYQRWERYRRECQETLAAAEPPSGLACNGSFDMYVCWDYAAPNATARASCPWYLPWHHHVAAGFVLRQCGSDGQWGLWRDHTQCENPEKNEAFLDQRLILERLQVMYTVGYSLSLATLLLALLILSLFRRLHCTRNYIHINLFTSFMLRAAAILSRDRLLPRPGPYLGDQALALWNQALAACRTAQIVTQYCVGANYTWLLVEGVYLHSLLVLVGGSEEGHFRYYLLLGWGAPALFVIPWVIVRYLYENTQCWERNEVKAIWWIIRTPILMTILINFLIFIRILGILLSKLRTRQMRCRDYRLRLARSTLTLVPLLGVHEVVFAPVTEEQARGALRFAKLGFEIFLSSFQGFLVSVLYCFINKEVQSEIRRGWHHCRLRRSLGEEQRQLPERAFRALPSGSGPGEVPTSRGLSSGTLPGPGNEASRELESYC

T2: GIP receptor (GIPR) (Homo sapiens, UniProt P48546)
T2 sequence (P48546 22-466): T1 sequence (looked up)

B1: 2004 (peptide)
peptide: YXEGTFTSDYSXYLXKQAXXEXVNWXLAX
modifications: B = alpha-aminoisobutyric acid (Aib) at positions 2 and 20; alpha-to-beta3 amino acid replacement(s) at the bold and underlined position(s) of the printed sequence, which this text does not show
B2: 2001 (peptide)
peptide: YXEGTFTSDYSXYLDXQAXXEFXNWXLAG
modifications: B = alpha-aminoisobutyric acid (Aib) at positions 2 and 20; alpha-to-beta3 amino acid replacement(s) at the bold and underlined position(s) of the printed sequence, which this text does not show
B3: 2005 (peptide)
peptide: YXEGTFTSDYSIYXDKXAAXXFVXWLLXG
modifications: B = alpha-aminoisobutyric acid (Aib) at positions 2 and 20; alpha-to-beta3 amino acid replacement(s) at the bold and underlined position(s) of the printed sequence, which this text does not show

Key:
[1] = Stability in human liver microsomes; conditions: for % of mass remaining in solution: 0.5 mg/mL human liver microsomes, 1 μM, 1 mM NADPH, 37° C.
Procedure: Human liver microsomes were prepared by Absorption Systems. A reaction mixture, minus NADPH, was prepared as described below. […] In parallel, a […]. The test compound was added into the reaction mixture (0.5 mg/mL human liver microsomes; 100 mM potassium phosphate; 5 mM Magnesium chloride) at a final concentration of 1 μM. An aliquot of the reaction mixture (without cofactor) was incubated in a shaking water bath at 37° C. for 3 minutes. […] The samples were then mixed and centrifuged to precipitate microsomal proteins. […] A thermo BDS Hypersil C18 column (30×2.0 mm; 3 μm) was used for chromatography at 300 μL/minute with an aqueous reservoir of 90% water and 10% buffer and an organic reservoir of 90% acetonitrile with 10% buffer (each 25 mM ammonium formate buffer at pH of 3.5). Test compound samples were analyzed by orbitrap. The peak area response ratio to internal standard (PARR) of the compounds at 10, 20, 30, and 60 minutes was compared to the PARR at time 0 to determine the percent of test compound remaining at each timepoint. After the final time point, fluorimetry is used to confirm the addition of NADPH to the reaction mixture. Half-life was normalized of control using internal acceptance criteria.
The mass spectrometry measurements of compound were taken at 0, 10, 20, 30, and 60 minutes after incubation of the compound with human liver microsomes at […] in solution at 37° C.
Intrinsic clearance (CLint) was calculated based upon CLint=k/P, where k is the elimination rate constant and P is the protein concentration in the incubation.

[2] = Stability in human plasma; assay type: in vitro ADME
Procedure: Studies of the 2010 peptide were carried out in human plasma. All plasma was obtained from Bioreclamation and collected on sodium heparin. DMSO stocks were first prepared for the test compounds. Aliquots of the DMSO solutions were dosed into 1 mL of plasma, which had been pre-warmed to 37° C., at a final test compound concentration of 1 μM. The vials were kept in a benchtop Thermomixer® for the duration of the experiment. Aliquots (100 μL) were taken at each timepoint (0, 15, 30, 60, and 120 minutes) and added to 96-well plates which had been pre-filled with 300 μL of acetonitrile. Samples were stored at 4° C. until the end of the experiment. After the final timepoint was sampled, the plate was mixed and then centrifuged at 3,000 rpm for 10 minutes. Aliquots of the supernatant were removed, diluted 1:1 into distilled water, and analyzed by LC-MS/MS.
Below is a table of data describing the stability of compounds exposed to human plasma with aliquot of compound dissolved in DMSO solution at 37° C. The pH of the plasma solution was adjusted to 7.4 and single replicants of aliquot were taken at 0, 15, 30, 60 and 120 minutes. LC-MS/MS was used to determine the percent mass of compound remaining in solution (% remaining).

GIP receptor = biological target: T1, GIP receptor; test: cell-based or functional assay
GIP receptor (GIPR) = biological target: T2, GIP receptor (GIPR); test: cAMP Hunter agonist assay (DiscoveRx HitHunter cAMP XS+), GIPR cells; assay type: cell-based; conditions: read-out: Max Response
Procedure: Once it was established that the cells were healthy and growing normally, cells were passaged from flasks using cell dissociation reagent buffer and seeded into white walled clear bottom 384-well microplates for compound profiling. For profiling, cells were seeded at a density of 10,000 cells per well in a total volume of 20 μL and were allowed to adhere and recover overnight prior to compound addition. cAMP modulation was determined using the DiscoveRx HitHunter cAMP XS+ assay.
For profiling compound in agonist mode, the cells were incubated in the presence of compound at 37° C. for 30 minutes. […] After appropriate compound incubation, assay signal was generated through incubation with DiscoverX lysis cocktail according to the manufacturers standard protocol. Dose curves were plotted using GraphPad Prism or Activity Base. Percentage activity is calculated using the following formula: % Activity=100%×(mean RLU of test sample−mean RLU of vehicle control)/(mean RLU of MAX control−mean RLU of vehicle control).

GLP-1 receptor = GLP-1 receptor (UniProt P43220 24-463, limits assumed); test: cell-based or functional assay

Molecule | cAMP agonist: Max Response (GIP receptor) [%] | cAMP agonist: Max Response (GLP-1 receptor) [%] | cAMP agonist: Curve Bottom (GIP receptor) [%] | cAMP agonist: Curve Top (GIP receptor) [%] | cAMP agonist: Curve Bottom (GLP-1 receptor) [%] | cAMP agonist: Curve Top (GLP-1 receptor) [%] | further results
CC[C@H](C)[C@H](NC(=O)[C@H](CO)NC(=O)[C@H](Cc1ccc(O)cc1)NC(=O)[C@H](CC(=O)O)NC(=O)[C@H](CO)NC(=O)[C@@H](NC(=O)[C@H](Cc1ccccc1)NC(=O)[C@@H](NC(=O)CNC(=O)[C@H](CCC(=O)O)NC(=O)C(C)(C)NC(=O)[C@@H](N)Cc1ccc(O)cc1)[C@@H](C)O)[C@@H](C)O)C(=O)N[C@@H](Cc1ccc(O)cc1)C(=O)N[C@@H](CC(C)C)C(=O)N[C@@H](CC(=O)O)C(=O)N[C@@H](CCCCN)C(=O)N[C@@H](CCC(N)=O)C(=O)N[C@@H](C)C(=O)N[C@@H](C)C(=O)NC(C)(C)C(=O)N[C@@H](CCC(=O)O)C(=O)N[C@@H](Cc1ccccc1)C(=O)N[C@H](C(=O)N[C@@H](CC(N)=O)C(=O)N[C@@H](Cc1c[nH]c2ccccc12)C(=O)N[C@@H](CC(C)C)C(=O)N[C@@H](CC(C)C)C(=O)N[C@@H](C)C(=O)NCC(N)=O)C(C)C [compound 2000, YBEGT FTSDY SIYLD KQAAB EFVNW LLAG] | – | – | – | – | – | – | % of mass remaining in solution ([1]; 0 mins.): 100%; half-life ([1]; human, microsomes): 58 min; microsomal CLint ([1]; human, microsomes): 24 µL/min/mg; remaining at 10 min, 1 μM ([1]; human, microsomes): 95%; remaining at 20 min, 1 μM ([1]; human, microsomes): 78%; remaining at 0.5 h, 1 μM ([1]; human, microsomes): 72%; remaining at 1 h, 1 μM ([1]; human, microsomes): 50%; % of mass remaining in solution ([2]; 0 mins., 1 μM, 37° C., pH 7.4): 100%; remaining at 0.25 h, 1 μM ([2]; plasma (sodium heparin), 15 mins., 1 μM, 37° C., pH 7.4, read-out: % of mass remaining in solution): 101%; remaining at 0.5 h, 1 μM ([2]; plasma (sodium heparin), 30 mins., 1 μM, 37° C., pH 7.4, read-out: % of mass remaining in solution): 99%; remaining at 1 h, 1 μM ([2]; plasma (sodium heparin), 60 mins., 1 μM, 37° C., pH 7.4, read-out: % of mass remaining in solution): 95%; remaining at 2 h, 1 μM ([2]; plasma (sodium heparin), 120 mins., 1 μM, 37° C., pH 7.4, read-out: % of mass remaining in solution): 98%; half-life ([2]; read-out: serum-half lives): > 120 min
wild-type GLP-1 (from UniProt P01275 92-128) (ligand) | 2.66 | – | – | – | – | – | –
CC[C@H](C)[C@H](NC(=O)[C@H](Cc1ccccc1)NC(=O)[C@H](CCC(=O)O)NC(=O)[C@H](CCCCN)NC(=O)[C@H](C)NC(=O)[C@H](C)NC(=O)[C@H](CCC(N)=O)NC(=O)CNC(=O)[C@H](CCC(=O)O)NC(=O)[C@H](CC(C)C)NC(=O)[C@H](Cc1ccc(O)cc1)NC(=O)[C@H](CO)NC(=O)[C@H](CO)NC(=O)[C@@H](NC(=O)[C@H](CC(=O)O)NC(=O)[C@H](CO)NC(=O)[C@@H](NC(=O)[C@H](Cc1ccccc1)NC(=O)[C@@H](NC(=O)CNC(=O)[C@H](CCC(=O)O)NC(=O)[C@H](C)NC(=O)[C@@H](N)Cc1c[nH]cn1)[C@@H](C)O)[C@@H](C)O)C(C)C)C(=O)N[C@@H](C)C(=O)N[C@@H](Cc1c[nH]c2ccccc12)C(=O)N[C@@H](CC(C)C)C(=O)N[C@H](C(=O)N[C@@H](CCCCN)C(=O)NCC(=O)N[C@@H](CCCNC(=N)N)C(N)=O)C(C)C [GLP1] | – | – | – | – | – | – | Emax (GIP receptor (GIPR)): 2.66%
C[C@]12CC[C@H]3[C@@H](CCC4=CC(=O)CC[C@@]43C)[C@@H]1CC[C@@H]2O [Testosterone, testosterone] | – | – | – | – | – | – | % of mass remaining in solution ([1]; 0 mins.): 100%; % of mass remaining in solution ([1]; 60 mins.): 4.8%; remaining at 10 min, 1 μM ([1]; human, microsomes): 53%; remaining at 0.5 h, 1 μM ([1]; human, microsomes): 13%
B1 | 99.1 | 2.68 | -0.8 | 99.1 | – | – | cAMP agonist EC50 (RC50 (uM)) (GLP-1 receptor): > 1 µM
Y[Aib]EGTFTSDYSIYLDK[ACPC]AA[Aib][ACPC]FV[APC]WLL[ACPC]G [2010] | 96.9 | 82.1 | -0.3 | 85.5 | 0.4 | 82.4 | –
B2 | 16.5 | 36.7 | – | – | – | – | cAMP agonist EC50 (RC50 (uM)) (GLP-1 receptor): > 1 µM; cAMP agonist EC50 (RC50 (uM)) (GIP receptor): > 1 µM
Y[Aib]EGTFTSDYSIYLD[APC]QA[ACPC][Aib]EF[ACPC]NW[ACPC]LAG [2008] | 82.2 | 84.5 | -0.6 | 82.8 | 0.9 | 84.4 | –
B3 | 99.2 | 95.7 | -2.6 | 96.3 | 1.3 | 91.1 | –
